Assay results: the supplement of paper PMC9170038

Test system: MS2 coat protein
Experiment: apparent KD of MS2 coat protein; designed switch direction (-1 OFF switch, 1 ON switch): 1; higher = weaker reporter binding
In short: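 Each step of the titration lasted 0.8–1.5 h at the lowest concentration and 10–20 min at the highest. The protein, SNAP-549-labelled MS2 coat protein, went from 0.7 or 1.5 nM doubling to 3 µM over RNA switches transcribed on Illumina chips by stalled E. coli RNA polymerase. Normalised cluster fluorescence was curve-fitted, and the per-design median over clusters is given as apparent KD.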

[1] = input ligand: microRNA oligo, concentration not stated
[2] = Eterna round: R95, input ligand: FMN 200 uM
[3] = Eterna round: R95, input ligand: microRNA oligo, concentration not stated
[4] = Eterna round: R95, input ligand: none

Sequence | apparent KD of MS2 coat protein (input ligand: FMN 200 uM) | apparent KD of MS2 coat protein [1] | apparent KD of MS2 coat protein (input ligand: none) | apparent KD of MS2 coat protein [2] | apparent KD of MS2 coat protein [3] | apparent KD of MS2 coat protein [4]
AUUUUUAAUGCAGGAUAUGAUUAACAUGAGGAUCACCCAUGUGGUGUUGUGAGUAAGGAGAGUGAUCAGAAGGGCAUUUUUUUC [JMF's solution 91] (Eterna round: R96, puzzle: Same State NG 2) | 888 nM | 274 nM | 502 nM |  |  | 
CAAAAUUAGUAGGAUAGGUACCCAGGAUGACAUGAGGAUCACCCAUGUAAGAGCUUUUUGCUCGUCAUUAACAGUUG [JR_SHM208a_Sub016] (puzzle: Sensor for hsa-mir-208a) |  |  |  | 55.7 nM | 55.7 nM | 68 nM
CAAGGACGGACACAGGAUAUCCUCACCUACACAUGAGGAUCACCCAUGUCAUAAAAGAUGGUGCAGGAGAAGGGUGCGGCGUCUA [Bibesoxe] (puzzle: Same State 2) |  |  |  | 10.7 nM | 9.62 nM | 9.99 nM
CAAGUACAUGAGGAUCACCCAUGUGGAAGAGAUGCAGGAUAUGUGGAGGAAGGGAGUGUAACAGAAGGGCAAGGAG [JR_SS!_Sub020] (puzzle: Same State 1) |  |  |  | 39.9 nM | 45.6 nM | 50.8 nM
CAAUAAAACACAGGAUAUACAGCCAGCCAGGCUGUAGAAGGGUGAGACAUGAGGAUCACCCAUGUACAAGUCGUAGGACUUGGG [Edlaticeen] (Eterna round: R96, puzzle: Same State NG 1) | 1030 nM | 47.7 nM | 163 nM |  |  | 
CACAAUCUAUCUGAGGAUAUCAUGAAAAAAACAUGAGGAUCACCCAUGUGCAGGAAAACUGCAUAUGAGAAGGCAGAUAGAUUGA [salish99_SS2_r3_016] (puzzle: Same State 2) |  |  |  | 38 nM | 1260 nM | 678 nM
CACAAUCUAUCUGAGGAUAUCAUGAAAAAAACAUGAGGAUCACCCAUGUGCAGGAAAACUGCAUAUGAGAAGGCAGAUAGAUUGC [salish99_SS2_r3_013] (Eterna round: R96, puzzle: Same State 2) |  | 452 nM |  |  |  | 
CACAAUCUAUCUGAGGAUAUCAUGAAAAAAACAUGAGGAUCACCCAUGUGCAGGAAAACUGCAUAUGAGAAGGCAGAUAGAUUGC [salish99_SS2_r3_013] (puzzle: Same State 2) |  |  |  | 27.9 nM | 460 nM | 943 nM
CACAUGAGGAUCACCCAUGUCAGACAAAGGAGCAUGACGCUACAGGAUAUGUGAGCGACUAACGAAUAGAAGGGUAGCCAUCAC [Eternabot solution 27] (Eterna round: R96, puzzle: Same State NG 3) | 27.5 nM | 20.8 nM | 29.3 nM |  |  | 
CAGCACUAUCGAGAGGAUAUGCGGUGAUGGACAUGAGGAUCACCCAUGUUAGCGAUAGCAUCACGGCAGAAGGCUCUGCUGCUGC [Soteed Omei mod 37] (puzzle: Same State 2) |  |  |  | 10.6 nM | 17.6 nM | 24.1 nM
CAGCACUGUCGAGAGGAUAUGCGGUGGUAGACAUGAGGAUCACCCAUGUUAGCGACAGCAUCACGGCAGAAGGCUCUGCUGCUGC [Soteed Omei mod 41] (puzzle: Same State 2) |  |  |  | 37.3 nM | 96.2 nM | 146 nM
CAGCGCUGUCGAGAGGAUAUGCGGUGAUGGACAUGAGGAUCACCCAUGUAAGCGAUAGCAUUACGGCAGAAGGCUCUGCAGCUGC [Riaranzaes] (Eterna round: R96, puzzle: Same State 2) |  | 17.2 nM |  |  |  | 
CAGCGCUGUCGAGAGGAUAUGCGGUGAUGGACAUGAGGAUCACCCAUGUUAGCGACAGCAUCACGGCAGAAGGCUCUACCGCUGG [Soteed Omei mod 42] (puzzle: Same State 2) |  |  |  | 12.6 nM | 9.78 nM | 9.61 nM
CAGCGCUGUCGAGAGGAUAUGCGGUGAUGGACAUGAGGAUCACCCAUGUUAGCGAUAGCAUUACGGUAGAAGGCUCUACAGCUGC [Soteed no mod] (puzzle: Same State 2) |  |  |  | 15 nM | 25.5 nM | 30.2 nM
CAGCGCUGUCGAGAGGAUAUGCGGUGAUGGACAUGAGGAUCACCCAUGUUAGCGAUAGCAUUACGGUAGAAGGCUCUACAGCUGC [Soteed] (Eterna round: R96, puzzle: Same State 2) | 18.7 nM | 32.1 nM | 47.4 nM |  |  | 
CAGCGCUGUCGAGAGGAUAUGCGGUGGUGGACAUGAGGAUCACCCAUGUUAGCGAUAGCAUUACGGUAGAAGGCUCUACAGCUGC [Soteed - 2] (puzzle: Same State 2) |  |  |  | 30.9 nM | 22.4 nM | 33 nM
CAGCGCUGUUGAGAGGAUAUGCGGUGAUGGACAUGAGGAUCACCCAUGUUAGCGACAGCAUUACGGUAGAAGGCUUCACAGCUGC [Soteed Omei mod 16] (puzzle: Same State 2) |  |  |  | 38.9 nM | 126 nM | 235 nM
CAGUGCUGUCGAGAGGAUAUGCGGUGAUGGACAUGAGGAUCACCCAUGUUAGCGACAGCGUCACGGCAGAAGGCUCUACCCACUG [Soteed Omei mod 46] (puzzle: Same State 2) |  |  |  | 11.7 nM | 15.3 nM | 18.2 nM
CCAACAUACAAUUUAAGAUCACAUGAGGAUCACCCAUGUAUGCAGGAUAUCAGCUCGUGUAGAGCUGAGAAGGGCAAUUUAAUU [SSNG3/1-A4] (Eterna round: R96, puzzle: Same State NG 3) | 103 nM | 193 nM | 265 nM |  |  | 
CCAACGUACAAUUUAGAUCUACAUGAGGAUCACCCAUGUACGGAGGAUAUCAGCUCGUGUAGAGCUGAGAAGGCCGAAUUAAUU [SSNG3/2-A4] (Eterna round: R96, puzzle: Same State NG 3) | 88 nM | 298 nM | 465 nM |  |  | 
CCAACGUACAAUUUAGAUCUACAUGAGGAUCACCCAUGUACGGAGGAUAUCAGCUCGUUUAGAGCUGAGAAGGCCGAAUUAAUU [SSNG3/2-A3] (Eterna round: R96, puzzle: Same State NG 3) |  | 238 nM |  |  |  | 
CCAAUGUACAAUUUAGAUCUACAUGAGGAUCACCCAUGUACAGAGGAUAUCAGCUCGAUUAGAGCUGAGAAGGCUGAAUUAAUU [SSNG3/3-A2] (Eterna round: R96, puzzle: Same State NG 3) | 137 nM | 135 nM | 266 nM |  |  | 
CCAGCAUCACGAGGAUAUGGAGGUUCCCGAAAGACAUGAGGAUCACCCAUGUAUGUACGCCGCCUUCAGAAGGUGUAUAAGCGA [Eternabot solution 31] (Eterna round: R96, puzzle: Same State NG 2) | 65.7 nM | 38.2 nM | 58.7 nM |  |  | 
CCAUAGUACAAUUUAGAUCUACAUGAGGAUCACCCAUGUACUGAGGAUAUCAGCUCGAUUAGAGCUGAGAAGGCAGAAUUAAUU [SSNG3/5-A2] (Eterna round: R96, puzzle: Same State NG 3) | 58.4 nM | 96.8 nM | 122 nM |  |  | 
CCCAGCGUUACAGGAUAUGGUGAGGAUCACCCACUAGAAGGGUAAACAUGUGCGUCGGACAUGAGGAUCACCCAUGUAGGGCGU (Eterna round: R96, puzzle: Same State NG 1) | 20.6 nM | 17.9 nM | 27 nM |  |  | 
CCCAGGCAUGGAGGAUAUGGGAACAUGAGGAUCACCCAUGUUAACUCCGUAGGCGGCUUAAGGCACCAGAAGGCUACGGCUGGU [Eternabot solution 15] (Eterna round: R96, puzzle: Same State NG 2) | 112 nM | 67.8 nM | 83 nM |  |  | 
CCGAAAGGAGUAGGAUAUGUAGGAUAUUCCUACAUGAGGAUCACCCAUGUUCGCAUGGAAGAAGGACAGAAGGACACGGAAACG [pwkr ssNG2 2FMN + 1F5.14] (Eterna round: R96, puzzle: Same State NG 2) | 212 nM | 19 nM | 66.2 nM |  |  | 
CCGAUUUAUGGAGGAUAUGGAGCCUUAUUGGCUCCAGAAGGUCAAUACAUGAGGAUCACCCAUGUGUCGGCGGUCAAUAGACCG [Eli NG1ss - 72] (Eterna round: R96, puzzle: Same State NG 1) | 61.7 nM | 44.2 nM | 128 nM |  |  | 
